In patent publication US20110020359A1, “METHODS AND COMPOSITIONS FOR TREATING NEURONAL DAMAGE OR DEGENERATION” (California Institute of Technology, priority 2009, published 2011):

Experiments:
[1] = tested on: dissociated rat P5-9 CGN cultures; assay: Cerebellar granule neuron (CGN) neurite outgrowth assay; type: cell-based; conditions: PD98059 25; AG1478 15 nM; Y27632 5 μM; JNK inhibitor II 10 μM
Description: Nitric acid-treated, 15-mm round German glass coverslips are coated with P-Orn in pH 6-8.5 borate buffer (at approximately 50 μg/ml) for about 1 hr at 37° C. and 5% CO2. CSPGs (at approximately 1 μg/ml) or polysaccharides enriched in the CS-A, CS-C, or CS-E sulfation motifs (at approximately 1 μg/ml) are coated on the P-Orn-coated coverslips overnight at 37° C. and 5% CO2. Cerebella from P5-9 Sprague Dawley rats are dissected, purified as described above, and cultured on the coated coverslips at a cell density of about 200 cells/mm^2. Neurons are grown in DMEM/F12, 1% FBS, and N1 supplement for about 24 hr.
In one example, inhibitors against MEK (PD98059, 25 μM; Calbiochem), EGFR (AG1478, 15 nM; Calbiochem), ROCK (Y27632, 5 μM; Calbiochem) and JNK (JNK Inhibitor II, 10 μM; Calbiochem) are added in solution at the start of culturing, and neurons are grown for 24 hr. For neurite outgrowth experiments from p75 knockout mice, cerebella from P5-7 mice, either C57BL/6 wild-type or p75−/− knockout mice, are dissected and purified as described above. Neurons are plated at a density of 200-300 cells/mm2 and cultured for about 24 hr. Cells are then fixed in 4% PFA/10% sucrose, immunostained with neuronal specific anti-class III β-tubulin antibody (TUJ1; Covance), and evaluated for neurite outgrowth. Neurons are imaged using a Nikon TE2000-S fluorescent microscope and quantified using the NIH software Image J. Statistical analysis is performed using the one-way ANOVA; n=50-200 cells per experiment.
P7 rat CGNs are grown for 24 hours on CS-E (1 μg/ml) in the presence of the CS-E antibody (CS-E Ab; 10 μg/ml).

[2] = Pull-down with biotinylated CS-E; type: binding; conditions: COS-7 cell lysates, immunoblot
Excerpt: Pull down assays can be useful for identifying proteins which bind to CS (e.g. CS-A, CS-C, or CS-E). Pull down assays can also be used for identifying agents that disrupt the binding between CS and a known binding partner. Full-length human p75 cDNA (amino acids 1-427; Open Biosystems) is ligated into a pcDNA3 vector (Invitrogen), modified to fuse an HA tag to the 5′ end of the insert. Human NgR (amino acids 27-473; imaGenes) is ligated into a modified pAPtag-5 vector (GenHunter) which fuses a secretion signal sequence and a c-myc tag to the 3′ end of the insert. COS-7 cells are transfected with either NgR-myc, p75-HA, or both using the Lipofectamine (Invitrogen) method. Cells are lysed about 2 days after transfection with 0.5-2% Triton X-100 in PBS containing a protease inhibitor mixture (Roche) by rocking for 15-90 min at 4° C. The lysates are clarified by centrifugation at 5-25,000 rpm for 1-30 min.
Biotin is attached to the free amino group of the residual core peptides of CS-C and CS-E polysaccharides (Seikagaku). […]
Biotinylated CS-C or CS-E (approximately 280 μg each) in 100-500 μl of PBS is added to streptavidin agarose resin (about 140 μl; Pierce) and incubated at room temperature for about 1 hr. […] NgR-myc and p75-HA are detected by immunoblotting with myc-tag (Cell Signaling) or HA-tag (Sigma) antibodies.

[3] = Surface plasmon resonance, binding to CS-E-enriched polysaccharides; conditions: SPR; read-out: dissociation constant (Kd)
Description: Surface plasmon resonance experiments can be used to provide quantitative measurements of the binding kinetics or affinity between two or more molecules such as proteins, peptides, and small molecules. All experiments are performed on a Biacore T100 at 25° C. using a Sensor Chip CM5 with a running buffer composed of 0.01 M HEPES, pH 7.4, 0.15 M NaCl, 3 mM EDTA, 0.05% Surfactant P20 (HBS-EP^+). To analyze the binding of anti-CS-E antibody to the CS-E tetrasaccharide, both control and active flow cells are exposed to a 1:1 mixture of N-hydroxysuccinimide hydroxysuccinimide (NHS) and 1-ethyl-3,3-dimethylaminopropyl-carbodiimide (EDC) for 1-10 min at a flow rate of about 10 μL·min^−1. […] The kinetics of the anti-CS-E antibody/CS-E tetrasaccharide interaction is determined by approximately 300 s long injections of anti-CS-E antibody at about 30 μL·min^−1. The dissociation is monitored for about 900 s before the surface is regenerated with a 30 s injection of 6 M guanidine HCl. […] Affinity analysis is measured by injecting the antibody for about 3600 s at 5 μL·min^−1. […] The data is analyzed by plotting the response at equilibrium versus concentration and fitting the resulting curve to the Langmuir equation. […]
In another example, utilizing the surface plasmon resonance methods described, data was generated to quantify measurements of the binding kinetics between CS-E and the binding partner EphA4. […]

[4] = Carbohydrate microarray, binding to CS-E
Description: The concentrations of the solutions range from 250 nM to 40 μM, and are calibrated to one another using the carbazole assay for uronic acid residue. A given concentration of each polysaccharide is spotted five to ten times at different positions on the array. A boundary is created around the polysaccharide spots on the slides using a hydrophobic slide marker (Super Pap Pen, Research Products International) and the slides are blocked with 5-10% fetal bovine serum (FBS) in PBS with gentle rocking at 37 ° C. for about 1 hr, followed by a brief rinse with PBS. Human NgR-Fc or mouse EphB2-Fc (R & D Systems) is reconstituted in 1% BSA in PBS, added to the bound region on the slides in 100 μl quantities at a concentration of 1-2 μM, and incubated at room temperature for about 3 hr. The slides are briefly rinsed three times with PBS, and then incubated with a goat anti-human IgG antibody conjugated to Cy3 (1:5000 in PBS) for 1 hr in the dark with gentle rocking. After rinsing two times with PBS and once with H2O, the microarray is analyzed at 532 nm using a GenePix 5000a scanner, and fluorescence quantification is performed using GenePix 6.0. Binding of the anti-CS-E antibody is evaluated using 100 μl of a 1 μg/ml (˜7 nM) solution of antibody and a goat anti-mouse IgG secondary antibody conjugated to Cy3 (1:5000 in PBS). […]

COc1cccc(-c2cc(=O)c3ccccc3o2)c1N [PD98059]
rescue of CS-E- and CSPG-mediated inhibition of neurite outgrowth [1]: rescue

O=C1c2ccccc2-c2n[nH]c3cccc1c23 [JNK inhibitor II]
rescue of CS-E- and CSPG-mediated inhibition of neurite outgrowth [1]: no effect

C[C@@H](N)[C@H]1CC[C@H](C(=O)Nc2ccncc2)CC1 [Y27632]
rescue of CS-E- and CSPG-mediated inhibition of neurite outgrowth [1]: rescue

COc1cc2ncnc(Nc3cccc(Cl)c3)c2cc1OC [AG1478]
rescue of CS-E- and CSPG-mediated inhibition of neurite outgrowth [1]: rescue

B1: myc-NgR1: full-length myc-tagged human NgR expressed in COS-7 cells (protein, UniProt Q9BZR6 1-473, looked up)
chain: MKRASAGGSRLLAWVLWLQAWQVAAPCPGACVCYNEPKVTTSCPQQGLQAVPVGIPAASQRIFLHGNRISHVPAASFRACRNLTILWLHSNVLARIDAAAFTGLALLEQLDLSDNAQLRSVDPATFHGLGRLHTLHLDRCGLQELGPGLFRGLAALQYLYLQDNALQALPDDTFRDLGNLTHLFLHGNRISSVPERAFRGLHSLDRLLLHQNRVAHVHPHAFRDLGRLMTLYLFANNLSALPTEALAPLRALQYLRLNDNPWVCDCRARPLWAWLQKFRGSSSEVPCSLPQRLAGRDLKRLAANDLQGCAVATGPYHPIWTGRATDEEPLGLPKCCQPDAADKASVLEPGRPASAGNALKGRVPPGDSPPGNGSGPRHINDSPFGTLPGSAEPPLTAVRPEGSEPPGFPTSGPRRRPGCSRKNRTRSHCRLGQAGSGGGGTGDSEGSGALPSLTCSLTPLGLALVLWTVLGPC
modifications: full-length myc tag
notes: full-length myc-tagged human NgR expressed in COS-7 cells
pull-down by CS-E [2]: Pull-down of full-length, native NgR by CS-E

B2: EfnB1: Ephrin B1, ligand that activates Eph receptors (protein, UniProt P98172 28-346, looked up)
Ephrin-B1: LAKNLEPVSWSSLNPKFLSGKGLVIYPKIGDKLDIICPRAEAGRPYEYYKLYLVRPEQAAACSTVLDPNVLVTCNRPEQEIRFTIKFQEFSPNYMGLEFKKHHDYYITSTSNGSLEGLENREGGVCRTRTMKIIMKVGQDPNAVTPEQLTTSRPSKEADNTVKMATQAPGSRGSLGDSDGKHETVNQEEKSGPGASGGSSGDPDGFFNSKVALFAAVGAGCVIFLLIIIFLTVLLLKLRKRHRKHTQQRAAALSLSTLASPKGGSGTAGTEPSDIIIPLRTTENNYCPHYEKVSGDYGHPVYIVQEMPPQSPANIYYKV
Kd [3]: 138 nM
binding to CS-E-enriched polysaccharides on carbohydrate microarrays [4]: selectively bind

B3: EfnA3: Ephrin A3, ligand that activates Eph receptors (protein, UniProt P52797 23-214, looked up)
Ephrin-A3: QGPGGALGNRHAVYWNSSNQHLRREGYTVQVNVNDYLDIYCPHYNSSGVGPGAGPGPGGGAEQYVLYMVSRNGYRTCNASQGFKRWECNRPHAPHSPIKFSEKFQRYSAFSLGYEFHAGHEYYYISTPTHNLHWKCLRMKVFVCCASTSHSGEKPVPTLPQFTMGPNVKINVLEDFEGENPQVPKLEKSISG
Kd [3]: 65 nM
binding to CS-E-enriched polysaccharides on carbohydrate microarrays [4]: selectively bind
